# According to the Immune Epitope Database (IEDB):
# Key:
# [1] = target: HLA-C*14:02; assay: IEDB peptide-MHC binding, purified MHC/direct/fluorescence; filed as Kd, often an IC50 or EC50 that approximates it; ≥ and ≤ were set here for values at or beyond the usual limits of such assays
# [2] = target: HLA-A*02:01; assay: as above
# [3] = target: HLA-A*02:03; assay: as above; conditions: source organism: Bacillus cereus 03BB108
# [4] = target: HLA-A*02:12; assay: as above; conditions: source organism: Bacillus cereus 03BB108
# [5] = target: HLA-B*07:02; assay: as above
# [6] = target: HLA-A*02:50; assay: IEDB peptide-MHC binding, purified MHC/competitive/fluorescence; filed as Kd, often an IC50 or EC50 that approximates it; ≥ and ≤ were set here for values at or beyond the usual limits of such assays
# [7] = target: HLA-A*01:01; assay: IEDB peptide-MHC binding, purified MHC/direct/fluorescence; filed as Kd, often an IC50 or EC50 that approximates it; ≥ and ≤ were set here for values at or beyond the usual limits of such assays
# [8] = target: HLA-A*02:11; assay: as above; conditions: source organism: Mammarenavirus juninense
# [9] = target: HLA-A*03:01; assay: as above
# [10] = target: HLA-A*29:02; assay: as above; conditions: source organism: Mammarenavirus juninense
# [11] = target: HLA-A*31:01; assay: as above
# [12] = target: HLA-B*18:01; assay: as above
# [13] = target: HLA-B*27:05; assay: as above
# [14] = target: HLA-B*39:01; assay: as above
# [15] = target: HLA-B*44:02; assay: as above
# [16] = target: HLA-B*57:01; assay: as above
# [17] = target: HLA-B*58:01; assay: as above
# [18] = target: HLA-C*03:03; assay: as above
# [19] = target: HLA-A*11:01; assay: as above
# [20] = target: HLA-A*68:02; assay: as above; conditions: source organism: Vibrio parahaemolyticus
# [21] = target: HLA-A*69:01; assay: as above
# [22] = target: HLA-B*08:01; assay: as above
# [23] = target: HLA-B*08:02; assay: as above; conditions: source organism: Vibrio parahaemolyticus RIMD 2210633
# [24] = target: HLA-B*15:09; assay: as above; conditions: source organism: Vibrio parahaemolyticus RIMD 2210633
# [25] = target: HLA-A*26:01; assay: IEDB peptide-MHC binding, purified MHC/competitive/fluorescence; filed as Kd, often an IC50 or EC50 that approximates it; ≥ and ≤ were set here for values at or beyond the usual limits of such assays; conditions: source organism: Vibrio parahaemolyticus K5030
# [26] = target: HLA-A*26:02; assay: as above
# [27] = target: HLA-B*15:01; assay: as above
# [28] = target: HLA-A*26:01; assay: IEDB peptide-MHC binding, purified MHC/direct/fluorescence; filed as Kd, often an IC50 or EC50 that approximates it; ≥ and ≤ were set here for values at or beyond the usual limits of such assays
# [29] = target: HLA-B*15:01; assay: as above
# [30] = target: HLA-B*40:01; assay: as above
# [31] = target: HLA-A*24:03; assay: as above; conditions: source organism: Yersinia pestis
# [32] = target: HLA-B*40:01; assay: IEDB peptide-MHC binding, purified MHC/competitive/fluorescence; filed as Kd, often an IC50 or EC50 that approximates it; ≥ and ≤ were set here for values at or beyond the usual limits of such assays
# [33] = target: HLA-B*39:01; assay: as above
# [34] = target: HLA-B*15:17; assay: IEDB peptide-MHC binding, purified MHC/direct/fluorescence; filed as Kd, often an IC50 or EC50 that approximates it; ≥ and ≤ were set here for values at or beyond the usual limits of such assays; conditions: source organism: Escherichia coli O157:H7
# [35] = target: HLA-A*11:01; assay: IEDB peptide-MHC binding, purified MHC/competitive/fluorescence; filed as Kd, often an IC50 or EC50 that approximates it; ≥ and ≤ were set here for values at or beyond the usual limits of such assays; conditions: source organism: Escherichia coli str. K-12 substr. MG1655
# [36] = target: HLA-A*68:02; assay: as above; conditions: source organism: Escherichia coli str. K-12 substr. MG1655
# [37] = target: HLA-A*02:03; assay: as above; conditions: source organism: Homo sapiens
# [38] = target: HLA-A*02:06; assay: as above; conditions: source organism: Homo sapiens
# [39] = target: HLA-A*30:01; assay: as above; conditions: source organism: Homo sapiens
# [40] = target: HLA-B*08:01; assay: as above; conditions: source organism: Homo sapiens
# [41] = source organism: Bacillus anthracis
# [42] = source organism: Mammarenavirus juninense
# [43] = source organism: Vibrio parahaemolyticus
# [44] = source organism: Vibrio parahaemolyticus RIMD 2210633
# [45] = source organism: Vibrio parahaemolyticus K5030
# [46] = source organism: Vibrio cholerae
# [47] = source organism: Yersinia pestis
# [48] = source organism: Escherichia coli APEC O1
# [49] = source organism: Cryptosporidium parvum
# [50] = source organism: Escherichia coli O139:H28 str. E24377A
# [51] = source organism: Escherichia coli O157:H7
sequence,measurement,setting,value
AASYARYVL,Kd,[1]; source organism: human gammaherpesvirus 4,0.491 µM
AQMVWIHGV,Kd,[2]; [41],0.0013 µM
same,Kd,[3],0.03 µM
same,Kd,[4],0.071 µM
same,Kd,[5]; [41],≥ 20 µM
same,Kd,[6]; source organism: Bacillus anthracis str. A2012,0.0003 µM
ASSEPHCAL,Kd,[7]; [42],≥ 20 µM
same,Kd,[2]; [42],≥ 20 µM
same,Kd,[8],0.04 µM
same,Kd,[9]; [42],≥ 20 µM
same,Kd,[10],≥ 20 µM
same,Kd,[11]; [42],≥ 20 µM
same,Kd,[12]; [42],≥ 20 µM
same,Kd,[13]; [42],≥ 20 µM
same,Kd,[14]; [42],1.07 µM
same,Kd,[15]; [42],≥ 20 µM
same,Kd,[16]; [42],≥ 20 µM
same,Kd,[17]; [42],≥ 20 µM
same,Kd,[18]; [42],≤ 0.001 µM
DMRKRIEAF,Kd,[7]; [43],≥ 20 µM
same,Kd,[2]; [43],≥ 20 µM
same,Kd,[19]; [43],≥ 20 µM
same,Kd,[20],≥ 20 µM
same,Kd,[21]; [43],≥ 20 µM
same,Kd,[5]; [43],≥ 20 µM
same,Kd,[22]; [44],0.013 µM
same,Kd,[23],0.171 µM
same,Kd,[24],≥ 20 µM
same,Kd,[12]; [44],0.025 µM
same,Kd,[14]; [44],≥ 20 µM
same,Kd,[16]; [43],≥ 20 µM
same,Kd,[17]; [43],≥ 20 µM
same,Kd,[25],≥ 20 µM
same,Kd,[26]; [45],0.0073 µM
same,Kd,[27]; [45],≥ 20 µM
FLHPKHWGT,Kd,[7]; [46],≥ 20 µM
same,Kd,[2]; [46],0.157 µM
same,Kd,[9]; [46],≥ 20 µM
same,Kd,[19]; [46],≥ 20 µM
same,Kd,[28]; [46],≥ 20 µM
same,Kd,[11]; [46],≥ 20 µM
same,Kd,[21]; [46],3.48 µM
same,Kd,[5]; [46],≥ 20 µM
same,Kd,[22]; [46],0.285 µM
same,Kd,[29]; [46],≥ 20 µM
same,Kd,[13]; [46],≥ 20 µM
same,Kd,[30]; [46],≥ 20 µM
same,Kd,[15]; [46],≥ 20 µM
same,Kd,[17]; [46],≥ 20 µM
same,Kd,[6]; source organism: Vibrio cholerae 2740-80,≤ 0.0001 µM
FMSLQSGDV,Kd,[7]; [47],≥ 20 µM
same,Kd,[2]; [47],≥ 20 µM
same,Kd,[9]; [47],≥ 20 µM
same,Kd,[19]; [47],≥ 20 µM
same,Kd,[31],≥ 20 µM
same,Kd,[28]; [47],≥ 20 µM
same,Kd,[11]; [47],≥ 20 µM
same,Kd,[21]; [47],1.34 µM
same,Kd,[5]; [47],≥ 20 µM
same,Kd,[22]; [47],≥ 20 µM
same,Kd,[29]; [47],≥ 20 µM
same,Kd,[13]; [47],≥ 20 µM
same,Kd,[30]; [47],≥ 20 µM
same,Kd,[15]; [47],≥ 20 µM
same,Kd,[17]; [47],≥ 20 µM
same,Kd,[6]; source organism: Yersinia pestis Nepal516,0.0025 µM
FQYYGIDWV,Kd,[2]; [43],0.0117 µM
same,Kd,[21]; [43],0.495 µM
same,Kd,[6]; [44],≤ 0.0001 µM
HESSVSWMF,Kd,[27]; [48],0.67 µM
same,Kd,[32]; [48],0.0011 µM
KAFPLIQNM,Kd,[16]; [49],0.124 µM
same,Kd,[17]; [49],0.0124 µM
same,Kd,[1]; source organism: Cryptosporidium parvum Iowa II,0.368 µM
LQMLGENVL,Kd,[27]; [50],0.152 µM
same,Kd,[33]; [50],0.017 µM
same,Kd,[32]; [50],0.836 µM
NLPSKPVWL,Kd,[7]; [51],≥ 20 µM
same,Kd,[2]; [51],6.91 µM
same,Kd,[9]; [51],≥ 20 µM
same,Kd,[11]; [51],≥ 20 µM
same,Kd,[5]; [51],7 µM
same,Kd,[29]; [51],≥ 20 µM
same,Kd,[34],≥ 20 µM
same,Kd,[12]; [51],≥ 20 µM
same,Kd,[13]; [51],≥ 20 µM
same,Kd,[16]; [51],≥ 20 µM
same,Kd,[17]; [51],≥ 20 µM
same,Kd,[35],≥ 20 µM
same,Kd,[26]; source organism: Escherichia coli str. K-12 substr. MG1655,0.565 µM
same,Kd,[36],3.54 µM
VAAHNAEAM,Kd,[18]; source organism: Leishmania major strain Friedlin,0.002 µM
VLNETTNWL,Kd,[21]; source organism: West Nile virus,≥ 20 µM
same,Kd,[18]; source organism: Japanese encephalitis virus,≥ 20 µM
VRVCACPGR,Kd,[37],≥ 20 µM
same,Kd,[38],2.07 µM
same,Kd,[26]; source organism: Homo sapiens,≥ 20 µM
same,Kd,[39],2.33 µM
same,Kd,[40],≥ 20 µM
same,Kd,[33]; source organism: Homo sapiens,≥ 20 µM
